Laboratory results as given in the PETadex activity labels.

Columns and labels:
[1] = Proxy for plastic degradation [Weight/mass loss]; conditions: pH 8
[2] = substrate: PET; test: Proxy for plastic degradation [Weight/mass loss]
[3] = substrate: PET; test: Proxy for plastic degradation [Absorbance (nm)]; conditions: pH 8.5
[4] = substrate: PBSA; test: Proxy for plastic degradation [kcat/Km (catalytic efficiency)] (mM⁻¹s⁻¹); conditions: pH 8.2
[5] = substrate: PCL; test: Proxy for plastic degradation [Residual activity]; conditions: pH 8
[6] = substrate: PET; test: Proxy for plastic degradation [Released monomer concentration (HPLC/LC-MS) (MHET+TPA)]; conditions: pH 8
[7] = substrate: PET; test: Proxy for plastic degradation [adsorption equilibrium constant (K_A), utilising heterogeneous kinetic model]; conditions: pH 8
[8] = substrate: PET; test: Proxy for plastic degradation [MHET inhibitor binding constant (beta), utilising the kinetic inhibition model]; conditions: pH 8
[9] = substrate: PET; test: Proxy for plastic degradation [hydrolysis rate constant (k_h), utilising heterogeneous kinetic model] (µmol/(cm²·h)); conditions: pH 8
[10] = substrate: pNP-C6; conditions: pH 8; 30 °C
[11] = Proxy for plastic degradation [HPLC-UV] (µmol); conditions: pH 7
[12] = substrate: p-NP-C4; conditions: pH 8
[13] = substrate: pNPB; test: Proxy for plastic degradation [Residual activity]; conditions: pH 8

B1: unnamed (protein)
chain: MARTMRSRVVAGAVACAMSIAPFAGTTAVMTLATTHAAMAATAPAAGYAATRYPIILVHGLSGTDKYAGVLEYWYGIQEDLQQNGATVYVANLSGFQSDDGPNGRGEQLLAYVKTVLAATGATKVNLVGHSQGGLSSRYVAAVAPDLVASVTTIGTPHRGSEFADFVQDVLAYDPTGLSSSVIAAFVNVFGILTSSSHNTNQDALAALQTLTTARAATYNQNYPSAGLGAPGSCQTGAPTETVGGNTHLLYSWAGTAIQPTLSVFGVTGATDTSTLPLVDPANVLDLSTLALFGTGTVMINRGSGQNDGLVSKCSALYGKVLSTSYKWNHLDEINQLLGVRGAYAEDPVAVIRTHANRLKLAGV
[1]
  Proxy for plastic degradation: 2.8 mg
[2]; pH 8
  Proxy for plastic degradation: 0 mg

B2: unnamed (protein)
chain: MLAVWDDTLAHPVRGRDRELATLTGLLDNTSGRRGTGMVVVGAPGTGKTTLLNALVEHAEGFQVLWAEGSAAESDVRFAGVEQLLRPLESLVSLLPDDRGRALRPVWGLPADDEGQVGSLAVPAAVSALLGLAARRQPVLCCVDSAHLLDSASLSALAFAARRAHHAGVVFVFAVDCTADTEVDTETSVWGELPRLRLGRLDDEAAHALLRDRLGASLPHDLADSLLDVGHGNPLALVELAESLTPEHLCGRAAPPSSPPPEGRLCRTLGHRLSALSEGAREVVALAGISEGLDEQLTCRVLPHHRSTLAEAVRSGLVVLDGDTVRTAADTVPSALLAALTPQDIVQAHHRMAEAAEAVGDRDRAVWHRAAIAMAPDPALVADLDDIAERARAAAAHATAAAASERAAALTSDTKERARRLVAAATDHWASGRPQRARTALRLAAPLSDSVLGARVSRLAGEIELRRGDPSVAATKLISTARQLASTHRTLAASALMLAGEASFVAGDNARYCLTAKDAALLCGPEEWPATRVVREHFTAMSATFRGEHSAAAAPLRSLVELGETTPDPTAKTLASQAAFTLGDAERSRDLALQAVVCARARGDESGVPWALVYAALSALLSGQLSAASTTALEGLQVARSLGQSNSAVDHVTVLAMLAALQGDEETALQRLQAANTELAERGLGRPSALATWAAACVDLAHDRPAEAFDRFRRMTVGRSRHCVPLRVMAVPHFVEAAVRCGEKEVARRSLVTFEHWANTTGGTARVALAHRCHALLAEQDGEAQERFTEAVRLHREADAPYDLAVTQLLYASHLRRSRRPKQARELLREAVQLFDDLGATHWVERASQELRACGHPGRGKPHLSRGLSPQQERIAQLVADGATNKEIATQLFISHRTVDHHLRNIFAKLDVRSRVQLAALFR
[3]
  Proxy for plastic degradation: 12.5 mM
[4]
  Proxy for plastic degradation: 308

B3: unnamed (protein)
chain: ANPYERGPNPTDALLEARSGPFSVSEENVSRLSASGFGGGTIYYPRENNTYGAVAISPGYTGTEASIAWLGERIASHGFVVITIDTITTLDQPDSRAEQLNAALNHMINRASSTVRSRIDSSRLAVMGHSMGGGGSLRLASQRPDLKAAIPLTPWHLNKNSSVTVPTLIIGADLDTIAPVATHAKPFYNSLPSSISKAYLELDGATHFAPNIPNKIIGKYSVAWLKRFVDNDTRYTQFLCPGPRDGLFGEVEEYRSTCPFY
[2]; pH 8
  Proxy for plastic degradation: 15.9%
[5]
  Proxy for plastic degradation: 36.5%
[6]
  Proxy for plastic degradation: 27 µM
[7]
  Proxy for plastic degradation: 0.338 mL/µg
[8]
  Proxy for plastic degradation: 0.738 L/mmol
[9]
  Proxy for plastic degradation: 0.094

B4: unnamed (protein)
chain: MDGVLWRVRTAALMAALLALAAWALVWASPSVEAQSNPYQRGPNPTRSALTADGPFSVATYTVSRLSVSGFGGGVIYYPTGTSLTFGGIAMSPGYTADASSLAWLGRRLASHGFVVLVINTNSRFDYPDSRASQLSAALNYLRTSSPSAVRARLDANRLAVAGHSMGGGGTLRIAEQNPSLKAAVPLTPWHTDKTFNTSVPVLIVGAEADTVAPVSQHAIPFYQNLPSTTPKVYVELDNASHFAPNSNNAAISVYTISWMKLWVDNDTRYRQFLCNVNDPALSDFRTNNRHCQ
[1]
  Proxy for plastic degradation: 9 mg
[2]; pH 8
  Proxy for plastic degradation: 1.5 mg

B5: unnamed (protein)
chain: MELALALSLIASVAAAPTATLANGDTITGLNAIINEAFLGIPFAEPPVGNLRFKDPVPYSGSLDGQKFTSYGPSCMQQNPEGTYEENLPKAALDLVMQSKVFEAVSPSSEDCLTINVVRPPGTKAGANLPVMLWIFGGGFEVGGTSTFPPAQMITKSIAMGKPIIHVSVNYRVSSWGFLAGDEIKAEGSANAGLKDQRLGMQWVADNIAAFGGDPTKVTIFGESAGSMSVMCHILWNDGDNTYKGKPLFRAGIMQSGAMVPSDAVDGIYGNEIFDLLASNAGCGSASDKLACLRGVSSDTLEDATNNTPGFLAYSSLRLSYLPRPDGVNITDDMYALVREGKYANIPVIIGDQNDEGTFFGTSSLNVTTDAQAREYFKQSFVHASDAEIDTLMTAYPGDITQGSPFDTGILNALTPQFKRISAVLGDLGFTLARRYFLNHYTGGTKYSFLSKQLSGLPVLGTFHSNDIVFQDYLLGSGSLIYNNAFIAFATDLDPNTAGLLVKWPEYTSSSQSGNNLMMINALGLYTGKDNFRTAGYDALFSNPPSFFV
[1]
  Proxy for plastic degradation: 0.2 mg
[2]; pH 8
  Proxy for plastic degradation: 0 mg

B6: unnamed (protein)
chain: MRKLYLFLFLTLISPISISIFHAQCTGATVESLTNPGPYTVATLSEADGVRNGPKYAGSTIYYPTNATPPYASIAIVPGFTAAPSSVQEWGPFYASHGIVAIIIGTNSLYDQPEARALALLDALETIKQENGRATSPLIGKLDVTKLAVSGWSMGGGGAQRAAVLDNTISAVVALCPYLTSPQLNHTVPVLIFSGQSDPTAPPSQHANVHYNTTPGTTNKLLFEVKNGNHSVANSPTGGGGAVGKLALSWLKIYLEKNDCYCSVLATAIVNSTTVSSKISQSYQCNNALGVVDSKTRFNLYPNPTKDFVQVNVREMASYQLSSSTGQIVLKGIVTSSKNQIDLSKLPAGVYYLQINGETIKVIKKQ
[10]
  Km: 300 µM
  kcat: 8.9 s⁻¹
  kcat/Km: 29700 M⁻¹ s⁻¹

B7: unnamed (protein)
chain: MANPYERGPNPTDALLEASSGPFSVSEENVSRLSASGFGGGTIYYPRENNTYGAVAISPGYTGTEASIAWLGGRIASHGFVVITIDTITTLDQPDSRAEQLNAALNHMINRASSTVRSRIDSSRLAVMGHSMGGGGTPRLASQRPDLKAAIPLTPWHLNKNRSSVTVPTLIIGADLDTIAPVATHAKPFYNSLPSSISKAYLELDGATHFAPNIPNKIIGKYSVAWLKRFVDNDTRYTQFLCPGPRDGLFGEVEEYCSTCPF
[11]
  Proxy for plastic degradation: 0.6

B8: unnamed (protein)
chain: MPPHAARPGPAQNRRGRAMAVITPRRERSSLLSRALRFTAAAATALVTAVSLAAPAHAANPYERGPNPTDALLEARSGPFSVSEERASRFGADGFGGGTIYYPRENNTYGAVAISPGYTGTQASVAWLGERIASHGFVVITIDTNTTLDQPDSRARQLNAALDYMINDASSAVRSRIDSSRLAVMGHSMGGGGTLRLASQRPDLKAAIPLTPWHLNKNWSSVRVPTLIIGADLDTIAPVLTHARPFYNSLPTSISKAYLELDGATHFAPNIPNKIIGKYSVAWLKRFVDNDTRYTQFLCPGPRDGLFGEVEEYRSTCPF
[12]; 60 °C
  Km: 673 µM
  kcat: 483 s⁻¹
  kcat/Km: 718000 M⁻¹ s⁻¹

B9: unnamed (protein)
chain: MKKIYAVALFFLATSFAPNIIFAQCGDVTIESLTNPGPYEVATLTEADGLRNGPDYQGATVYYPTNATPPFASIAIVPGFTALPSSVEEWGPFYASHGIVTIIIGTNSLFDFPEERAVALIDALETMRQENTRSSSPLENQLDVDKFAVSGWSMGGGGAQRAAVLDNTIKGVVALCPWLPNASLNHDSPVLIFSGENDPTAPPAQHADLHYAATPNTTNKLLFEIENGNHSVANTPNGGNGAVGKIALSWLKLYVDENDCYCPLLTESLLVDPPAASKVLSSFECELLSVPDNSFAISVYPNPTHDFVNINSTNPVHFEVYSALGQRLLSGELTQSEKQIDFSNFAKGLYYVRLGNETVKIVRN
[10]
  Km: 1370 µM
  kcat: 19.1 s⁻¹
  kcat/Km: 13900 M⁻¹ s⁻¹

B10: unnamed (protein)
chain: SNPYQRGPNPTRSALTADGPFSVATYTVSRLSVSGFGGGVIYYPTGTSLTFGGIAMSPGYTADASSLAWLGRRLASHGFVVLVINTNSRFDYPDSRASQLSAALNYLRTSSPSAVRARLDANRLAVAGHSMGGGGTLRIAEQNPSLKAAVPLTPWHTDKTFNTSVPVLIVGAEADTVAPVSQHAIPFYQNLPSTTPKVYVELDNASHFAPNSNNAAISVYTISWMKLWVDNDTRYRQFLCNVNDPALSDFRTNNRHCQHHHHHH
[13]; 40 °C
  Proxy for plastic degradation: 100%
[13]; 50 °C
  Proxy for plastic degradation: 100%
[13]; 90 °C
  Proxy for plastic degradation: 0%
[13]; 95 °C
  Proxy for plastic degradation: 0%

B11: unnamed (protein)
chain: ANPYERGPNPTDALLEARSGPFSVSEENVSRLSASGFGGGTIYYPRENNTYGAVAISPGYTATEASIAWLGERIASHGFVVITIDTITTLDQPDSRAEQLNAALNHMINRASSTVRSRIDSSRLAVMGHSMGGGGSLRLASQRPDLKAAIPLTPWHLNKNWSSVTVPTLIIGADLDTIAPVATHAKPFYNSLPSSISKAYLELDGATHAAPNIPNKIIGKYSVAWLKRFVDNDTRYTQFLCPGPRDGLFGEVEEYRSTCPFYPNSSSVDKLAAALE
[2]; pH 9, 6 h
  Proxy for plastic degradation: 20%

B12: unnamed (protein)
chain: MEMLEEHRCFEGWQQRWRHDSSTLNCPMTFSIFLPPPRDHTPPPVLYWLSGLTCNDENFTTKAGAQRVAAELGIVLVMPDTSPRGEKVANDDGYDLGQGAGFYLNATQPPWATHYRMYDYLRDELPALVQSQFNVSDRCAISGHSMGGHGALIMALKNPGKYTSVSAFAPIVNPCSVPWGIKAFSSYLGEDKNAWLEWDSCALMYASNAQDAIPTLIDQGDNDQFLADQLQPAVLAEAARQKAWPMTLRIQPGYDHSYYFIASFIEDHLRFHAQYLLK
[12]; 37 °C
  Km: 700 µM
  kcat: 0.36 s⁻¹
  kcat/Km: 514 M⁻¹ s⁻¹
